Test [1] concerns the target human formyl peptide receptor-like-1 (FPRL-1) receptor (human) (UniProt P25090). Description: cell-based or functional assay.
Test [2] relates to PMNs. In words: PMNs chemotaxis. It counts as cell-based, human. As for the experimental part: The physiological relevance of CKβ8-1 (aa46-137) as a ligand for FPRL-1 was assessed by PMNs chemotaxis experiments.
In test [3] the target is T1, FPRL-1 (Homo sapiens, UniProt P25090).
T1 sequence (P25090 1-351): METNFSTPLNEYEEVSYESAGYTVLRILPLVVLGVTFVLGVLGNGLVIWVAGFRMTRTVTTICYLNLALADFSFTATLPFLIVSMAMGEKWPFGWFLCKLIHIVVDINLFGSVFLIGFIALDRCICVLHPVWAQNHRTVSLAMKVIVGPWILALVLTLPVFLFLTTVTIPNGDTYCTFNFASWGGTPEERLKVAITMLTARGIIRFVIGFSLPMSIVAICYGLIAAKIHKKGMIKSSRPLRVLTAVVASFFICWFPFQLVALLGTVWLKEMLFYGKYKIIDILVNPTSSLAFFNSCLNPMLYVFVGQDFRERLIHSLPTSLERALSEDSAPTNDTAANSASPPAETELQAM
The test is classed as cell-based.

Test [4] relates to PMNs. Description: [Ca2+]i mobilization in PMNs (FLIPR). The test is classed as cell-based, human. The settings on record: n as in cell. From the text:
Neutrophils play a pivotal role in the innate immune response to infection. Since these cells express FPRL-1, we evaluated the effect of CKβ8-1 (aa46-137) on PMNs calcium mobilization using the FLIPR system.

For test [5], the target named is T1, FPRL-1. Description: Inhibition of forskolin-stimulated cAMP accumulation (adenylyl cyclase) in CHO cells expressing FPRL-1. It counts as cell-based. The note with it: n as in cell.
Test [6] deals with T1, FPRL-1. The test is classed as cell-based. As for the experimental part: A stable receptor pool of FPRL-1 was developed by applying an antibiotic selection (G418, 1 mg/ml) and the cells were maintained in this selection medium.
A functional assay was performed with FLIPR (Fluorescent Imaging Plate Reader, Molecular Devices, Sunnyvale, Calif.) using the fluorescent calcium indicator Fluo-3 (Molecular Probes, Inc., Eugene, Oreg.) on a 96-well platform. […] On the day of the experiment, the FPRL-1-transfected cells were loaded with fluorescent solution (Dulbecco's modified medium containing 4 μM Fluo-3 and 20% pluronic acid). The cells were incubated at 37° C. for one hour in a humidified chamber. Following the incubation step, cells were washed five times in Hanks' with 20 mM Hepes and 0.1% BSA (pH 7.4). The cells were analyzed using the FLIPR system to measure the mobilization of intracellular calcium in response to different compounds.
Cell lines transiently expressing human FPRL-1 were stimulated with compounds, and calcium responses were compared to parental cells.
This is another data set of the same source.

The target in test [7] is T1, FPRL-1. In words: [125I]-W-peptide (WKYMVm) displacement on membranes from CHO cells stably expressing FPRL-1. It counts as binding.
For test [8], the target named is human formyl peptide receptor-like-1 (FPRL-1) receptor (human) (UniProt P25090). In words: displacement of [125I]-WKYMVm from membranes of CHO cells stably expressing FPRL-1 (n = 3). On the technique in general: In a radioligand displacement assay an active substance lowers the binding of a labelled ligand.
The target is the same in test [9]. Description: cell-based or functional assay. This is another data set of the same source.
Setting [10] is: CHO cells co-expressing Gα16 and FPRL-1, mean±s.e. mean.
Setting [11] is: calcium mobilization, cells co-expressing Gα16 and FPRL-1.

Where “and” joins values, the source holds several entries; their conditions need not be identical. Identical values can stand only once. Like-named read-outs stand apart in the source and are kept apart here. Where no end group is shown, it is not given here. Some results are limits rather than exact numbers.

In turn, “Human Prion protein (hPrP) (from UniProt P04156 106-126)” displayed an Intracellular Ca2+ mobilization pEC50 (n = 3), CHO cells (-log of the EC50) in test [1] of under 6.
In the case of `CSCC[C@H](NC(=O)[C@@H](NC(=O)[C@H](CCSC)NC(=O)[C@H](Cc1ccc(O)cc1)NC(=O)[C@H](CCCCN)NC(=O)[C@@H](N)Cc1c[nH]c2ccccc12)C(C)C)C(N)=O` [W-peptide], the “concentration at which the maximum percentage of cell migration was reached” value in the test on PMNs [2] was 100 nM. Moreover, the calcium response result on FPRL-1 [3] (CHO cells transiently expressing FPRL-1, absence of Gα16) is “consistent calcium response”. Besides, on FPRL-1 [3] (CHO-K1 transiently expressing FPRL-1, PTX pre-treatment), the “effect of pertussis toxin (PTX) pre-treatment on ligand-induced Ca2+ response” value is “completely abolished”.
On to “CKβ8 (aa22-120) (from UniProt P55773 22-120) (ligand)”, for which, in [1], the Intracellular Ca2+ mobilization pEC50 (n = 3), CHO cells (-log of the EC50) is under 5.
Broadly, the pEC50 is −log10 of the EC50, conventionally taken in molar units. A lower pEC50 goes with a large EC50. With “IL-8: known to activate CXCR1 and CXCR2 receptors”, the pEC50 with PMNs [4] is reported as 8.76 ± 0.24 (n = 3).
Regarding `CCCCC[C@H](O)/C=C/C=C\C=C\C=C\[C@@H](O)[C@@H](O)CCCC(=O)O` [Lipoxin A4 (LXA4), Lipoxin A4], at FPRL-1 [5], the “Adenylyl cylase pIC50” value was <5.7 (n = 2). Also, the pEC50 result with PMNs [4] is “inactive (n = 4)”. Moreover, the “Intracellular Ca2+ mobilization pEC50 (n = 3)” value on FPRL-1 [6] (setting [10]) is on record as under 6.0. Moreover, the “[125I]-W-peptide (WKYMVm) Displacement pIC50 (n = 3)” value (“[125I]-W-peptide” for short) at FPRL-1 [7] was “inactive”.
SHAAG peptide: in test [1], the Intracellular Ca2+ mobilization pEC50 (n = 3), CHO cells (-log of the EC50) stood at 6.74; the fold higher potency than CKβ8-1 (aa22-137), calcium mobilization came out at 120 fold; the fold lower potency than CKβ8-1 (aa46-137), calcium mobilization lay within 60 to 200 fold.
Consider “CKβ8 (aa46-120) (from UniProt P55773 46-120) (ligand)”, for which the Intracellular Ca2+ mobilization pEC50 (n = 3), CHO cells (-log of the EC50) in test [1] is under 5.
Consider MMK-1 (peptide), for which, in test [1], the concentration giving the maximum percentage of cell migration, PMN chemotaxis was found to be 12 µM and the pEC50, [Ca2+]i mobilization in PMNs (-log of the EC50) was 7.17.
As usually defined, the EC50 is the midpoint of the concentration-response curve. Lower therefore signals a more potent agent. In the case of LWRRKIGPQMTLSHAAG [SHAAG peptide], it took 182 nM to reach a half-maximal effect on FPRL-1 [6] (Intracellular Ca2+ mobilization pEC50 (n = 3), CHO cells co-expressing Gα16 and FPRL-1, mean±s.e. mean) (EC50). For the same molecule, at FPRL-1 [6] (setting [11]), the “times less potent at FPRL-1 as compared to CKβ8-1 (aa46-137)” value was 60 to 200 times and the “times more potent than the long form CKβ8-1(aa22-137)” value is listed as about 120 times.
Take “recombinant human CKβ8-1 (aa46-137) (from UniProt P55773 46-137) (ligand)”: in test [1], the Adenylyl cylase pIC50 (inhibition of forskolin-stimulated cAMP accumulation), CHO cells (-log of the IC50) turned out to be 9.02; the EC50, intracellular calcium mobilization (FLIPR), CHO cells transiently expressing hFPRL-1 in Gα16 background, n = 1 is 0.69 nM; the EC50, intracellular calcium mobilization (FLIPR), CHO cells transiently expressing hFPRL-1 in Gα16 background, n = 2 is 0.14 nM; the EC50, intracellular calcium mobilization (FLIPR), CHO cells transiently expressing hFPRL-1 in Gαqi5 background, n = 1 is 2.9 nM. In test [1], the EC50, intracellular calcium mobilization (FLIPR), CHO cells transiently expressing hFPRL-1 in Gαqi5 background, n = 2 came out at 2.5 nM; the Emax, intracellular calcium mobilization (FLIPR), CHO cells transiently expressing hFPRL-1 in Gα16 background, n = 1 turned out to be 4120 RFU; the Emax, intracellular calcium mobilization (FLIPR), CHO cells transiently expressing hFPRL-1 in Gα16 background, n = 2 was determined as 6330 RFU; the Emax, intracellular calcium mobilization (FLIPR), CHO cells transiently expressing hFPRL-1 in Gαqi5 background, n = 1 is 4600 RFU. Moreover, in [1], the Emax, intracellular calcium mobilization (FLIPR), CHO cells transiently expressing hFPRL-1 in Gαqi5 background, n = 2 amounted to 5950 RFU; the Intracellular Ca2+ mobilization pEC50 (n = 3), CHO cells (-log of the EC50) was found to be 9.13; the concentration giving the maximum percentage of cell migration, PMN chemotaxis worked out at 1 µM; the pEC50, [Ca2+]i mobilization in PMNs (-log of the EC50) was found to be 7.42. In [8], this molecule had a pIC50 (-log of the IC50) of 7.97.
On to MIP-1α: ligand tested in PMNs, for which the pEC50 entry in the test with PMNs [4] is “inactive (n = 4)”.
On to “CKβ8-1 (aa22-137) (from UniProt P55773 22-137) (ligand)”, for which, in test [1], the Intracellular Ca2+ mobilization pEC50 (n = 3), CHO cells (-log of the EC50) was under 5.7 and the fold lower potency at FPRL-1 than at CCR1, calcium mobilization was 200 to 300 fold.

B1: Serum Amyloid A protein (SAA) (ligand, UniProt P0DJI8 19-122, looked up, species assumed)
Serum amyloid A-1 protein: RSFFSFLGEAFDGARDMWRAYSDMREANYIGSDKYFHARGNYDAAKRGPGGAWAAEVITDARENIQRFFGHGAEDSLADQAANEWGRSGKDPNHFRPAGLPEKY
For B1, the “Adenylyl cylase pIC50” value with FPRL-1 [5] was 6.38 and 6.48. In test [9], the Adenylyl cylase pIC50 (inhibition of forskolin-stimulated cAMP accumulation), CHO cells (-log of the IC50) is 6.38 and 6.48; the Intracellular Ca2+ mobilization pEC50 (n = 3), CHO cells (-log of the EC50) worked out at 6.88; the pEC50, [Ca2+]i mobilization in PMNs (-log of the EC50) is under 5.7. The negative-log EC50 (pEC50) with PMNs [4] is listed as <5.7 (n = 3). Also, in the test with FPRL-1 [6] (setting [10]), the “Intracellular Ca2+ mobilization pEC50 (n = 3)” value was found to be 6.88 ± 0.07. Moreover, the “[125I]-W-peptide” value with FPRL-1 [7] is under 5.52. In addition, the “[125I]-W-peptide” value in the test with FPRL-1 [7] (listed as SAA) was under 5.52.

Source of the values: patent US20060141460A1, “Assays for fprl-1 ligands” (AstraZeneca A B, priority 2002, published 2006).
